The source of these data is PMC3143262 (Journal of molecular biology, 2011).

By stoichiometry N is commonly meant the number of molecules, sites or subunits per partner or assembly.

This data set deals with the molecule itself. Briefly: SEC.

Changes are numbered by the printed parent chain. Names and notes keep the numbering of the source.

B1: CD147 Ig0 wild-type (domain or fragment, human, UniProt P35613 22-138, looked up)
chain: AAGFVQAPLSQQRWVGGSVELHCEAVGSPVPEIQWWFEGQGPNDTCSQLWDGARLDRVHIHATYHQHAASTISIDTLVEEDTGTYECRASNDPDRNHLTRAPRVKWVRAQAVVLVLE
Regarding B1, the “stoichiometry N” value came to 2.

B2: CD147 Ig0 C67M (domain or fragment, human, UniProt P35613 22-138, looked up)
chain: B1 chain with C46M
modifications: Selenomethionine labeled for the crystal structure
Regarding B2, the “stoichiometry N” value was 2.

B3: CD147 Ig0 K126A (domain or fragment, human, UniProt P35613 22-138, looked up)
chain: B1 chain with K105A
Consider B3, for which the “stoichiometry N” value came out at 2.
